The values that follow come from patent publication US20250019737A1.

The target in assay [1] is nDHFR-linker 1-His6-Ub (pND-Ub) (mouse) (UniProt P00375). The experiment in a line: cell-based or functional assay.
For assay [2] the target is unchanged.

Sequence of vWA T173,175R (P00375 whole entry): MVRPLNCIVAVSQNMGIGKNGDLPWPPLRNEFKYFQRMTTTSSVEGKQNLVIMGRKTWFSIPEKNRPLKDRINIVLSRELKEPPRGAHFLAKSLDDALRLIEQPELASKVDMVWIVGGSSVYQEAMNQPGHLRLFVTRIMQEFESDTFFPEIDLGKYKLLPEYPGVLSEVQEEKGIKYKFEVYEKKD
Sequence of vWA Q149R (P00375 whole entry, stated change not applied): as the sequence (P00375 whole entry) above
Sequence of vWA (P00375 whole entry): as above
Sequence of vWA Q149A (P00375 whole entry, stated change not applied): as the sequence (P00375 whole entry) above

For the substance “cDHFR-Vps9 (pCD-Sub) (from UniProt P00375 109-187; P54787 1-451)”, the bacterial growth on trimethoprim, split DHFR, incomplete ubiquitination cascade (ΔE1, ΔE2) in assay [1] came out at 0.1 µg/mL.

On to vWA T173,175R (from UniProt P00375), for which the Growth efficiency (max growth density divided by the time of half max growth); number matched to the legend entry by its order in the column and its grey tone in assay [2] turned out to be 62.

Substance vWA Q149R (from UniProt P00375) had a Growth efficiency (max growth density divided by the time of half max growth); number matched to the legend entry by its order in the column and its grey tone in assay [2] of 516.

In assay [2], vWA Q149A (from UniProt P00375) yielded a Growth efficiency (max growth density divided by the time of half max growth); number matched to the legend entry by its order in the column and its grey tone of 715.

vWA (from UniProt P00375) came in with a Growth efficiency (max growth density divided by the time of half max growth); number matched to the legend entry by its order in the column and its grey tone in assay [2] of 1230.
